The target of this experiment is Tropomyosin receptor kinase B (human TrkB), stably expressed in NIH-3T3 cells (human) (UniProt Q16620).
Chain of UniProt Q16620 (Q16620 32-822): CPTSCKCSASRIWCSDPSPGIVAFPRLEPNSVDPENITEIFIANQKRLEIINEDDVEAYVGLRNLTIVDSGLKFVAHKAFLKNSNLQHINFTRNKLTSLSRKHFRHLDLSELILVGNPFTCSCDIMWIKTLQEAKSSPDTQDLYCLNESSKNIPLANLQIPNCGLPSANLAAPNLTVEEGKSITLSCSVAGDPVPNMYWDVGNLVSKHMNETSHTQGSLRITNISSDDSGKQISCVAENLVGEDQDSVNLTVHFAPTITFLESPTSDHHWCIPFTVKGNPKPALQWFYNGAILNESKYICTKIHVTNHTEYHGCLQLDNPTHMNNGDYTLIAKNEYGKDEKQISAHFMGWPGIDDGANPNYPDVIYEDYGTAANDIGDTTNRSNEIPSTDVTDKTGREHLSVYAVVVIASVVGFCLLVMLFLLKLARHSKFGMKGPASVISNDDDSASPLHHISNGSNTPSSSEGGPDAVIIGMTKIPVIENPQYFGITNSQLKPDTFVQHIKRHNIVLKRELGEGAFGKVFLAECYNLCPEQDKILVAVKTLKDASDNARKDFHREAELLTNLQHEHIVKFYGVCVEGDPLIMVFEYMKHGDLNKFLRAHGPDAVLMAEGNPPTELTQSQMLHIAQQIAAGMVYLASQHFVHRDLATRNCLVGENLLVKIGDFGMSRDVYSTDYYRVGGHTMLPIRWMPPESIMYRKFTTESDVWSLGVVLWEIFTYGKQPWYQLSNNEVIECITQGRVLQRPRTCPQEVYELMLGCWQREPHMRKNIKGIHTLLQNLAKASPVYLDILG

“Brain-derived neurotrophic factor (ligand)” showed a TrkB phosphorylation (Western blot of phosphorylated and total TrkB) in NIH-3T3-TrkB cells after 20 min with BDNF (500 ng/mL), fold change against the untreated control of 1.87 fold change.

Source of the values: publication PMC11227723.
